From the Human Domainome abundance scans (Beltran et al. 2025)
± gives the uncertainty stated by the source.

B1: KAT8 regulatory NSL complex subunit 2, residues 28 to 91; numbered along this chain, Q9H9L4 (parent)
chain: CAFTHRPCSHPRLEGQEFCIKHILEDKNAPFKQCSYISTKNGKRCPNAAPKPEKKDGVSFCAEH

Variants of: B1
Test: abundance fitness (aPCA) (normalised: wild type 0, dead -1); higher = more abundant; growth selection in yeast, the domain comes from the species named
Conditions: Homo sapiens

| Variant | abundance fitness |
| --- | --- |
| CAFTHRPRSHPRLEGQEFCIKHILEDKNAPFKQCSYISTKNGKRCPNAAPKPEKKDGVSFCAEH [C8R] | -1.02 ± 0.06 |
| CAFTHRPVSHPRLEGQEFCIKHILEDKNAPFKQCSYISTKNGKRCPNAAPKPEKKDGVSFCAEH [C8V] | -0.949 ± 0.058 |
| CAFTHRPCSHPRLEGQEFCIKHILEDKNHPFKQCSYISTKNGKRCPNAAPKPEKKDGVSFCAEH [A29H] | -0.208 ± 0.11 |
| CAFTHRPCSHPRLEGQEFCIKHILEDKNAPFKQCSYISTKNGKRCPNAWPKPEKKDGVSFCAEH [A49W] | -0.315 ± 0.067 |
| CAFTHRPCSHPRLEGQEFCIKHILEDKNAPFKQCSYISTKNGKRCPNAGPKPEKKDGVSFCAEH [A49G] | -0.06 ± 0.057 |
| CAFTHRPCSHWRLEGQEFCIKHILEDKNAPFKQCSYISTKNGKRCPNAAPKPEKKDGVSFCAEH [P11W] | -0.555 ± 0.079 |
| CAFTHNPCSHPRLEGQEFCIKHILEDKNAPFKQCSYISTKNGKRCPNAAPKPEKKDGVSFCAEH [R6N] | -0.133 ± 0.068 |
| CAFTHCPCSHPRLEGQEFCIKHILEDKNAPFKQCSYISTKNGKRCPNAAPKPEKKDGVSFCAEH [R6C] | -0.032 ± 0.066 |
| CAFTHRPCSHPRLEGQEFCNKHILEDKNAPFKQCSYISTKNGKRCPNAAPKPEKKDGVSFCAEH [I20N] | -0.328 ± 0.21 |
| CAFTHRPCSHPRLEGQEFCQKHILEDKNAPFKQCSYISTKNGKRCPNAAPKPEKKDGVSFCAEH [I20Q] | -0.091 ± 0.08 |
| CAFTHRPCSHPRLEGQEFCFKHILEDKNAPFKQCSYISTKNGKRCPNAAPKPEKKDGVSFCAEH [I20F] | -0.115 ± 0.074 |
| CAFTHRPCSHPRLEGQEFCIKHILEDKNAPFKQCSYCSTKNGKRCPNAAPKPEKKDGVSFCAEH [I37C] | -0.032 ± 0.12 |
| CAFTHRPCSHPRLEGQEFCIKHILEDKNAPFKQCSYKSTKNGKRCPNAAPKPEKKDGVSFCAEH [I37K] | -0.107 ± 0.1 |
| CAFTHRPCSHPRLEGQEFCIKHALEDKNAPFKQCSYISTKNGKRCPNAAPKPEKKDGVSFCAEH [I23A] | -0.078 ± 0.068 |
| CAFTHRPCSHPRLEGQEFCIKHILEDKNAPFKQCSYISTKEGKRCPNAAPKPEKKDGVSFCAEH [N41E] | -0.005 ± 0.07 |
| CAFTHRPCSHPRLEGQEFCIKHILEDKNAPFKQCSYISTKGGKRCPNAAPKPEKKDGVSFCAEH [N41G] | -0.03 ± 0.053 |
| CAFTHRPCSHPRLEGQEFCIKHIDEDKNAPFKQCSYISTKNGKRCPNAAPKPEKKDGVSFCAEH [L24D] | -0.13 ± 0.071 |
| IAFTHRPCSHPRLEGQEFCIKHILEDKNAPFKQCSYISTKNGKRCPNAAPKPEKKDGVSFCAEH [C1I] | -0.287 ± 0.34 |
| CAFTHRPCSHPRLEGQEFCIKHILEDKNAPFKQCSYISTKNGKRCPNAAPKPEKKDGLSFCAEH [V58L] | -0.046 ± 0.062 |
| CAFTHRPCSHPRLEGQEFCIKHILEDKNAPFKQCSYISTKNCKRCPNAAPKPEKKDGVSFCAEH [G42C] | -0.105 ± 0.066 |
| CAFTHRPCSHPRLEGQEFCIKHILEDKNAPFKQCSYISTKNGKRCPNAAPKPEKKDGVSFCNEH [A62N] | -0.105 ± 0.14 |

| Variant | abundance fitness |
| --- | --- |
| CAFTHRPCSHPRLEGQEFCIKHILEDKNAPFKQCSYISTKNGKRCPNAAPKPEKKDGVSFCAWH [E63W] | -0.086 ± 0.057 |
| CAFTHRPCSHPPLEGQEFCIKHILEDKNAPFKQCSYISTKNGKRCPNAAPKPEKKDGVSFCAEH [R12P] | -0.147 ± 0.077 |
| CAFTHRPCSHPALEGQEFCIKHILEDKNAPFKQCSYISTKNGKRCPNAAPKPEKKDGVSFCAEH [R12A] | -0.055 ± 0.077 |
| CSFTHRPCSHPRLEGQEFCIKHILEDKNAPFKQCSYISTKNGKRCPNAAPKPEKKDGVSFCAEH [A2S] | -0.238 ± 0.088 |
| CPFTHRPCSHPRLEGQEFCIKHILEDKNAPFKQCSYISTKNGKRCPNAAPKPEKKDGVSFCAEH [A2P] | -0.421 ± 0.084 |
| CAFTHRPCSHPRLEGQEFCIKHILNDKNAPFKQCSYISTKNGKRCPNAAPKPEKKDGVSFCAEH [E25N] | -0.203 ± 0.1 |
| CAFTHRPCSHPRLEGQEFCIKHILMDKNAPFKQCSYISTKNGKRCPNAAPKPEKKDGVSFCAEH [E25M] | -0.092 ± 0.059 |
| CAFTHRPCSHPRLEGQEFCIKHILADKNAPFKQCSYISTKNGKRCPNAAPKPEKKDGVSFCAEH [E25A] | -0.132 ± 0.059 |
| CAFTHRPCSHPRLEGQEFCIKHILEDKNAPFKQCIYISTKNGKRCPNAAPKPEKKDGVSFCAEH [S35I] | -0.177 ± 0.095 |
| CAFTHRPCSHPRLEGQEFCIKHILEDKNAPFKQCPYISTKNGKRCPNAAPKPEKKDGVSFCAEH [S35P] | -0.177 ± 0.074 |
| CAFTHRPCSHPRLEGQEFCIKHILEDKNAPFKQCSYISTKNGKRCPNAAPKPEKKTGVSFCAEH [D56T] | -0.057 ± 0.059 |
| CAFTHRPCSHPRLEGQEFCIKHILEDKNAPFKQCSYISTKNGKRCPNAAYKPEKKDGVSFCAEH [P50Y] | -0.249 ± 0.079 |
| CAFQHRPCSHPRLEGQEFCIKHILEDKNAPFKQCSYISTKNGKRCPNAAPKPEKKDGVSFCAEH [T4Q] | -0.494 ± 0.099 |
| CAFTHRPCSHPRLEGQEFCIKHILEDKNAPFKGCSYISTKNGKRCPNAAPKPEKKDGVSFCAEH [Q33G] | -0.142 ± 0.063 |
| CAFTHRPCSHPRLEGQEFCIKHILEDKNAPFKQCSYISTDNGKRCPNAAPKPEKKDGVSFCAEH [K40D] | -0.14 ± 0.17 |
| CAFTHRPCSHPRLEGQEFCIKHILEDKNAPFKQCSYISTWNGKRCPNAAPKPEKKDGVSFCAEH [K40W] | -0.401 ± 0.38 |
| CAFTLRPCSHPRLEGQEFCIKHILEDKNAPFKQCSYISTKNGKRCPNAAPKPEKKDGVSFCAEH [H5L] | -0.068 ± 0.054 |
| CAFTHRPCSHPRLEGQEFCIKHILEDKNAPFKQCSYIGTKNGKRCPNAAPKPEKKDGVSFCAEH [S38G] | -0.048 ± 0.058 |
| CAFTHRPCSHPRLEGQPFCIKHILEDKNAPFKQCSYISTKNGKRCPNAAPKPEKKDGVSFCAEH [E17P] | -0.137 ± 0.077 |
| CAFTHRPCSHPRLEGQEFCIKHILEDKNAPFKQCSYISTKNGKRCPNAAPKPEKKDDVSFCAEH [G57D] | -0.138 ± 0.21 |
| CAFTHRPCSHPRLEGQEFGIKHILEDKNAPFKQCSYISTKNGKRCPNAAPKPEKKDGVSFCAEH [C19G] | -0.941 ± 0.056 |
